This is an account of results in US20260042849.

Series [1] has as its target internally quenched peptide probe with CM APMGLKH (SEQ ID NO: 7).
Series [2] concerns the target internally quenched peptide probe with CM PMGLK (SEQ ID NO: 64).
Series [3] deals with internally quenched peptide probe with CM PMGLKS (SEQ ID NO: 5).
In series [4] the target is internally quenched peptide probe with CM PWGLRS (SEQ ID NO: 181).
Series [5] deals with internally quenched peptide probe with CM RSPWGL (SEQ ID NO: 182).
Series [6] has as its target internally quenched peptide probe with CM 7041 (PWGL, SEQ ID NO: 100).
The target of series [7] is internally quenched peptide probe with CM 7047 (PYGL, SEQ ID NO: 103).
Series [8] has as its target internally quenched peptide probe with CM 7049 (PFGL, SEQ ID NO: 104).
Series [9] concerns the target internally quenched peptide probe with CM 7050 (PRGL, SEQ ID NO: 105).
For series [10], the target named is internally quenched peptide probe with CM 7051 (PMGL, SEQ ID NO: 106).
In series [11] the target is internally quenched peptide probe with CM 7052 (PLGL, SEQ ID NO: 107).
The target in series [12] is internally quenched peptide probe with CM 7053 (PQGL, SEQ ID NO: 9).
For series [13], the target named is internally quenched peptide probe with CM 7054 (PKGL, SEQ ID NO: 108).
Series [14] deals with internally quenched peptide probe with CM 7055 (PHGL, SEQ ID NO: 10).
The target of series [15] is internally quenched peptide probe with CM 7056 (PEGL, SEQ ID NO: 11).

B1: human recombinant MT-SP1 (R&D Systems, catalog No: 3946-SEB) (protein)
chain: VVGGTDADEGEWPWQVSLHALGQGHICGASLISPNWLVSAAHCYIDDRGFRYSDPTQWTAFLGLHDQSQRSAPGVQERRLKRIISHPFFNDFTFDYDIALLELEKPAEYSSMVRPICLPDASHVFPAGKAIWVTGWGHTQYGGTGALILQKGEIRVINQTTCENLLPQQITPRMMCVGFLSGGVDSCQGDSGGPLSSVEADGRIFQAGVVSWGDGCAQRNKPGVYTRLPLFRDWIKENTGV
On to B1, for which the Probe Cleavage (kcat/KM) in [1] came out at 77000 M⁻¹ s⁻¹; in series [2], 1600 M⁻¹ s⁻¹; in series [3] it was 320000 M⁻¹ s⁻¹; in series [4], 31000 M⁻¹ s⁻¹; in [5] it was 48000 M⁻¹ s⁻¹. The Probe Cleavage (pM/s) in [1] came out at 3330 pM/s; in series [2], 46.1 pM/s; in series [3], 14100 pM/s; in series [4], 1230 pM/s; in series [5], 2390 pM/s.

B2: human recombinant MMP2 (R&D Systems, catalog No: 902-MP) (protein)
chain: YNFFPRKPKWDKNQITYRIIGYTPDLDPETVDDAFARAFQVWSDVTPLRFSRIHDGEADIMINFGRWEHGDGYPFDGKDGLLAHAFAPGTGVGGDSHFDDDELWTLGEGQVVRVKYGNADGEYCKFPFLFNGKEYNSCTDTGRSDGFLWCSTTYNFEKDGKYGFCPHEALFTMGGNAEGQPCKFPFRFQGTSYDSCTTEGRTDGYRWCGTTEDYDRDKKYGFCPETAMSTVGGNSEGAPCVFPFTFLGNKYESCTSAGRSDGKMWCATTANYDDDRKWGFCPDQGYSLFLVAAHEFGHAMGLEHSQDPGALMAPIYTYTKNFRLSQDDIKGIQELYGASPDIDLGTGPTPTLGPVTPEICKQDIVFDGIAQIRGEIFFFKDRFIWRTVTPRDKPMGPLLVATFWPELPEKIDAVYEAPQEEKAVFFAGNEYWIYSASTLERGYPKPLTSLGLPPDVQRVDAAFNWSKNKKTYIFAGDKFWRYNEVKKKMDPGFPKLIADAWNAIPDNLDAVVDLQGGGHSYFFKGAYYLKLENQSLKSVKFGSIKSDWLGC
For B2, the “stated: cleaved (kcat/Km, M-1s-1, bar on a log axis)” value is “PWGL, MMP2 bar ends between 1x10^3 and 1x10^4” in [6]; “PYGL, MMP2 bar ends between 1x10^3 and 1x10^4” in series [7]; “PFGL, MMP2 bar ends between 1x10^3 and 1x10^4” in series [8]; “PRGL, MMP2 bar ends between 1x10^4 and 1x10^5; the highest MMP2 bar of the ten peptide probes” in series [9]; “PMGL, MMP2 bar ends between 1x10^4 and 1x10^5” in series [10]; “PLGL, MMP2 bar ends between 1x10^4 and 1x10^5” in series [11]. Also, the “stated: cleaved (kcat/Km, M-1s-1, bar on a log axis)” value is “PQGL, MMP2 bar ends between 1x10^4 and 1x10^5” in series [12]; “PKGL, MMP2 bar ends between 1x10^4 and 1x10^5” in series [13]; “PHGL, MMP2 bar ends just above the 1x10^4 tick” in series [14]; “PEGL, MMP2 bar ends between 1x10^3 and 1x10^4” in [15]. The “kcat/KM (M^-1 s^-1)” value in series [7], in series [8] and in series [15] was “greater than 5×10^2 M^-1 s^-1” each time. The Probe Cleavage (kcat/KM) in [1] was 2.7e+06 M⁻¹ s⁻¹; in [2], 180000 M⁻¹ s⁻¹; in series [3], 8.5e+06 M⁻¹ s⁻¹; in series [4], 140000 M⁻¹ s⁻¹; in series [5], 260000 M⁻¹ s⁻¹. In addition, the Probe Cleavage (pM/s) amounted to 81700 pM/s in [1]; 4690 pM/s in series [2]; 119000 pM/s in series [3]; 3800 pM/s in series [4]; 11700 pM/s in series [5].
